Patent US20200157212A1 (Pfizer, published 2020)

B1: Abcs35 (antibody, human IgG1, kappa)
heavy: EVQLVQSGAEVKKPGASVKVSCKASGYTFTGYYMHWVRQAPGQGLEWMGWINPKNGDTEFPQKFQGRVTMTRDTSITTAYMDLSRLRSDDTAVYYCARESGDDAFDIWGQGTMVTVSSASTKGPSVFPLAPSSKSTSGGTAALGCLVKDYFPEPVTVSWNSGALTSGVHTFPAVLQSSGLYSLSSVVTVPSSSLGTQTYICNVNHKPSNTKVDKKVEPKSCDKTHTCPPCPAPEAAGAPSVFLFPPKPKDTLMISRTPEVTCVVVDVSHEDPEVKFNWYVDGVEVHNAKTKPREEQYNSTYRVVSVLTVLHQDWLNGKEYKCKVSNKALPAPIEKTISKAKGQPREPQVYTLPPSREEMTKNQVSLTCLVKGFYPSDIAVEWESNGQPENNYKTTPPVLDSDGSFFLYSKLTVDKSRWQQGNVFSCSVMHEALHNHYTQKSLSLSPGK
light: DIVMTQSPSSLSASVGDRVTITCRASQSISSYLNWYQQKPGKAPKLLIYAASSLQSGVPSRFSGSGSGTDFTLTISSLQPEDFATYYCQQSVGLFFGGGTKVEIKRTVAAPSVFIFPPSDEQLKSGTASVVCLLNNFYPREAKVQWKVDNALQSGNSQESVTEQDSKDSTYSLSSTLTLSKADYEKHKVYACEVTHQGLSSPVTKSFNRGEC
notes: fully human IgG1; VH of Ab96 with VL of Ab123
B2: Abcs35-J (antibody, human IgG1, kappa)
heavy: EVQLVQSGAEVKKPGASVKVSCKASGYTFTGYYMHWVRQAPGQGLEWMGWINPKNGDTEFPQKFQGRVTMTRDTSITTAYMELSRLRSDDTAVYYCARESGDDAFDIWGQGTMVTVSSASTKGPSVFPLAPSSKSTSGGTAALGCLVKDYFPEPVTVSWNSGALTSGVHTFPAVLQSSGLYSLSSVVTVPSSSLGTQTYICNVNHKPSNTKVDKKVEPKSCDKTHTCPPCPAPEAAGAPSVFLFPPKPKDTLMISRTPEVTCVVVDVSHEDPEVKFNWYVDGVEVHNAKTKPREEQYNSTYRVVSVLTVLHQDWLNGKEYKCKVSNKALPAPIEKTISKAKGQPREPQVYTLPPSREEMTKNQVSLTCLVKGFYPSDIAVEWESNGQPENNYKTTPPVLDSDGSFFLYSKLTVDKSRWQQGNVFSCSVMHEALHNHYTQKSLSLSPGK
light: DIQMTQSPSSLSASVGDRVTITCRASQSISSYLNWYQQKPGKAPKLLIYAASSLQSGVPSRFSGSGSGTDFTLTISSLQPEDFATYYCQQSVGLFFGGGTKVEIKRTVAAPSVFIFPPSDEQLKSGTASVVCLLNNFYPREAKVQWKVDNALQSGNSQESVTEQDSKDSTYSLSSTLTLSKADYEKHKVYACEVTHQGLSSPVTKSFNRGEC
notes: germlined variant of Abcs35; also called ABCS-J

Experiments:
[1] = target: T1, Human ROBO1 RSK mutant overexpressed on HEK293 cells (human, UniProt Q9Y6N7 26-1651); assay: flow cytometry, HEK293 cells
T1 construct: K137R and R139K already in the entry; also called ROBO1-RSK cells
T1 sequence (Q9Y6N7 other isoform, or with tags, fused parts or gaps mutant limits assumed): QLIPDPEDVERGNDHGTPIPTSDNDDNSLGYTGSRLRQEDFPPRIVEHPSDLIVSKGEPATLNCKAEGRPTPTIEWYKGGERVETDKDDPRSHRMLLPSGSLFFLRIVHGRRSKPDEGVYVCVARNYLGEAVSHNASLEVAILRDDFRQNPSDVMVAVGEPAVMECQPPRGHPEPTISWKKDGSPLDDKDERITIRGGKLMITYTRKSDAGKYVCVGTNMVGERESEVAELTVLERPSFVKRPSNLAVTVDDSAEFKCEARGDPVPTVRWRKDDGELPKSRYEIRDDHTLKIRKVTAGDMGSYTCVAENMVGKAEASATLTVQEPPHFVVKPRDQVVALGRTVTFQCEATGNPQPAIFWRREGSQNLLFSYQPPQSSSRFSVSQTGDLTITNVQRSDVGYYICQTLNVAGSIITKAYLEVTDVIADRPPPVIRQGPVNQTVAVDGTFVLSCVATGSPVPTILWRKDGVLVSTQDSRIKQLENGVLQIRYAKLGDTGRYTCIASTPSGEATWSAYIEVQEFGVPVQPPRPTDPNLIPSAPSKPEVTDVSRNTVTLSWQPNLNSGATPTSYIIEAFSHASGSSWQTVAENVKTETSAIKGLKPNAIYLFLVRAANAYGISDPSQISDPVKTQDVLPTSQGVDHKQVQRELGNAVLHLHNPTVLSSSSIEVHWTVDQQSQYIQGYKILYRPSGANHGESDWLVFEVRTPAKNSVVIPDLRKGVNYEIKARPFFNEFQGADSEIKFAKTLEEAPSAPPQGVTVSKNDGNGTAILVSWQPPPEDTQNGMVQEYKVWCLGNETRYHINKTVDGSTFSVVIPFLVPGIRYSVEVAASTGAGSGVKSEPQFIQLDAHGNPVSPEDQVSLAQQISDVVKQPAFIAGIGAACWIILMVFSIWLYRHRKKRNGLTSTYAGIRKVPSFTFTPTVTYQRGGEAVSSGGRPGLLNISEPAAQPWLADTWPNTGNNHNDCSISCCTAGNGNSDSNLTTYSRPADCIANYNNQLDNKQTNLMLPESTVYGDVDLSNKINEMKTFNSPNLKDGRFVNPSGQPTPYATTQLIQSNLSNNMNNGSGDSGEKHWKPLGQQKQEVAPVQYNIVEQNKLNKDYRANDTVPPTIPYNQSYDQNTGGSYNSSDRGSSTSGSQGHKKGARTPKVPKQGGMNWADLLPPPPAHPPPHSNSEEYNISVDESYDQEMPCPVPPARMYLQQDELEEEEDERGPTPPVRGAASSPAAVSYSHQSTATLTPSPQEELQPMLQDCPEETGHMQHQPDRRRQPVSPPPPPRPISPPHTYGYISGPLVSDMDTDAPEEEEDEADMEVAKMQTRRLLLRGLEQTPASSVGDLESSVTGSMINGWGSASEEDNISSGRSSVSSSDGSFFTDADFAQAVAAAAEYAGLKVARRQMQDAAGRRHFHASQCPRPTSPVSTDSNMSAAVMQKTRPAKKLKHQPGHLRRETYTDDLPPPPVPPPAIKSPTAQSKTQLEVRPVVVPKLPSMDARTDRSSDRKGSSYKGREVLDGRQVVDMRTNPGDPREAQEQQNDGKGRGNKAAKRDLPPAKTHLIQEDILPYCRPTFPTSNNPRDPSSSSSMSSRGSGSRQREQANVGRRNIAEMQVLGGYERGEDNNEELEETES
Protocol: (§1) Using flow cytometry, improvement in the binding EC₅₀ to human ROBO2 relative to the parental 93H2 was evaluated. Starting at 6.7 nM, 11-point, 3-fold dilution series were made for each antibody and used to stain HEK293 overexpressing human ROBO2 as described above for the ROBO2 fold selectivity (Example 2). […] In addition to measuring improved binding to human ROBO2, it was important to ensure that high affinity binding to both cynomolgus monkey ROBO2 and rat ROBO2 was maintained. Using HEK293 cells overexpressing either cynomolgus monkey ROBO2 or rat ROBO2, the relative dose-dependent binding of 93H2, Abcs25 and Abcs35 was evaluated as described above. High affinity binding to both cynomolgus monkey and rat ROBO2 was maintained in Abcs25 and Abcs35 (Table 4). […] Briefly, Abcs35 was immobilized to 300 resonance units (RU) on a CM5 chip. Association of ROBO2 Ig1-Ig2-His (ROBO2) was measured over 5 minutes and dissociation was followed for a period of 10 minutes.
(§2) The binding profile of Abcs35-J compared to Abcs35 was determined for human ROBO2, orthologs from cynomolgus monkey and rat, human ROBO1 and specificity for the RSK epitope from ROBO2 but not KSR from ROBO1. Binding was assessed by flow cytometry as described in Examples 2 (homolog specificity), Example 3 (ortholog reactivity) and Example 5 (RSK vs KSR epitope specificity). […] Binding of the antibodies was detected using a secondary fluorochrome conjugated anti-human IgG F(ab′)₂ antibody and samples analyzed on a Fortessa cytometer (BD Biosciences).

[2] = target: T2, Cynomolgus monkey ROBO2 overexpressed on HEK293 cells (cynomolgus monkey, UniProt Q9HCK4 22-1378 (human entry)); assay: flow cytometry, HEK293 cells
T2 chain: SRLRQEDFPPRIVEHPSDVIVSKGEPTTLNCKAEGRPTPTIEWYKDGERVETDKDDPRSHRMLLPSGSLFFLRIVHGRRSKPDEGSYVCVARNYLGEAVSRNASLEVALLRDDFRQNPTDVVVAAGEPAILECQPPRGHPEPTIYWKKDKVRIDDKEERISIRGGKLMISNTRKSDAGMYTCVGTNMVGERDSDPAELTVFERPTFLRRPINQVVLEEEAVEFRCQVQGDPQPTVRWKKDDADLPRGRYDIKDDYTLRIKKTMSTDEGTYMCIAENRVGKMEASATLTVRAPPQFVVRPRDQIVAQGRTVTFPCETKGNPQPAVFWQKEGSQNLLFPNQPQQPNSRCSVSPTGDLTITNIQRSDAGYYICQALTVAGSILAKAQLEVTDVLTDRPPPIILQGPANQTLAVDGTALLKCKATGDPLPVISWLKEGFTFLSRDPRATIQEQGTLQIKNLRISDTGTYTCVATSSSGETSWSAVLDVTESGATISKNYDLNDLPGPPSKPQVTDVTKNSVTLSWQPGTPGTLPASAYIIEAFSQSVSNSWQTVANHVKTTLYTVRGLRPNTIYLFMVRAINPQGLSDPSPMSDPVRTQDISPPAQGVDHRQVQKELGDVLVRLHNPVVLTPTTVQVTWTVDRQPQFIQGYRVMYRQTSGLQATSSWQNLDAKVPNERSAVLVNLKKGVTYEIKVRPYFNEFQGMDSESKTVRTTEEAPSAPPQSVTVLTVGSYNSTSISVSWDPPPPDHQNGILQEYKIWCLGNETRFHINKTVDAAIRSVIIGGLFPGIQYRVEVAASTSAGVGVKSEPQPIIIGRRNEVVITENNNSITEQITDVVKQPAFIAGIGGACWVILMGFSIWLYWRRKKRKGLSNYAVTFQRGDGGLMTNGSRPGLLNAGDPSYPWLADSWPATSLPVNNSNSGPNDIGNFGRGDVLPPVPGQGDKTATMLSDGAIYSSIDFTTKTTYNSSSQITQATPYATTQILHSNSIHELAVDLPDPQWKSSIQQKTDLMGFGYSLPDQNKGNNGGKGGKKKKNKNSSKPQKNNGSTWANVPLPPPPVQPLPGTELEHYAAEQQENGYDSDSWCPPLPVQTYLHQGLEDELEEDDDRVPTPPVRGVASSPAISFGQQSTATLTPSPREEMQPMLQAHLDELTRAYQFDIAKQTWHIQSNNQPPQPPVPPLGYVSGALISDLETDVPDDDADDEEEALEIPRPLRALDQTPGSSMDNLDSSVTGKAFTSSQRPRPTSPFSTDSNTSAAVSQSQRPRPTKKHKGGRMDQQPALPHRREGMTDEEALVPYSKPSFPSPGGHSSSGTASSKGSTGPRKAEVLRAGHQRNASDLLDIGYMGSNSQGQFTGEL
Protocol: as §1, §2

Row | Binder | EC50 [1] | EC50 [2]
1 | B1 | 0.077 nM | 0.111 nM
2 | B2 | 0.079 nM | 0.099 nM
